Results as given in patent US20180155451A1 (published 2018).

T1: FcγRIIb (human, UniProt P31994 43-217)
T1 construct: extracellular domain; also called 2b; FcgRIIb
T1 sequence (looked up): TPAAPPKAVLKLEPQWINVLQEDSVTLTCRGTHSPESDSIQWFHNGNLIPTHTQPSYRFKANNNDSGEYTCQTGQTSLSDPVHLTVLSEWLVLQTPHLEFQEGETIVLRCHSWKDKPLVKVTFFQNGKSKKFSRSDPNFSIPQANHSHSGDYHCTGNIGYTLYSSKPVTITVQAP


Each binder was assayed against T1, FcγRIIb (assay: SPR (Biacore), binding relative to GpH7-B3/GpL16-k0 = 100).
Procedure: Analysis of interaction between objective antibody and the FcγR was carried out using Biacore T100 (GE Healthcare). HBS-EP+ (GE Healthcare) was used as the running buffer, and the measurement temperature was set to 25° C. Chips produced by immobilizing the antigen peptide by the amine coupling method to a Series S Sencor Chip CM5 (GE Healthcare), or alternatively, chips produced by allowing preliminarily biotinylated antigen peptides to interact with and immobilize onto a Series S Sensor Chip SA (certified) (GE Healthcare) were used. Antibodies of interest were captured onto an antigen peptide-immobilized chip, and allowed to interact to each FcγR diluted with running buffer. To regenerate and repeatedly use the chip, the antibodies captured on the chip were washed off by reacting 10 mM glycine-HCl, pH 1.5.
The FcγR-binding activity of each antibody was assessed primarily using as an indicator the FcγR-binding activity and dissociation constant for FcγR.

Binder	Ho/Con_2b
GpH7-B3 variant G237_20W/GpL16-k0 (antibody, human IgG1, kappa, also called Ho Ab G237_20W) heavy: not shown light: DIVMTQSPLSLPVTPGEPASISCQASESLVHSNRNTYLHWYLQKPGQSPQLLIYKVSNRFSGVPDRFSGSGSGTDFTLKISRVEAEDVGVYYCSQNTHVPPTFGQGTKVEIERTVAAPSVFIFPPSDEQLKSGTASVVCLLNNFYPREAKVQWKVDNALQSGNSQESVTEQDSKDSTYSLSSTLTLSKADYEKHKVYACEVTHQGLSSPVTKSFNRGEC	166 % of control
GpH7-B3 variant H268_15Y/GpL16-k0 (antibody, human IgG1, kappa, also called Ho Ab H268_15Y) heavy: not shown light: DIVMTQSPLSLPVTPGEPASISCQASESLVHSNRNTYLHWYLQKPGQSPQLLIYKVSNRFSGVPDRFSGSGSGTDFTLKISRVEAEDVGVYYCSQNTHVPPTFGQGTKVEIERTVAAPSVFIFPPSDEQLKSGTASVVCLLNNFYPREAKVQWKVDNALQSGNSQESVTEQDSKDSTYSLSSTLTLSKADYEKHKVYACEVTHQGLSSPVTKSFNRGEC	104 % of control
GpH7-B3 variant K326_20W/GpL16-k0 (antibody, human IgG1, kappa, also called Ho Ab K326_20W) heavy: not shown light: DIVMTQSPLSLPVTPGEPASISCQASESLVHSNRNTYLHWYLQKPGQSPQLLIYKVSNRFSGVPDRFSGSGSGTDFTLKISRVEAEDVGVYYCSQNTHVPPTFGQGTKVEIERTVAAPSVFIFPPSDEQLKSGTASVVCLLNNFYPREAKVQWKVDNALQSGNSQESVTEQDSKDSTYSLSSTLTLSKADYEKHKVYACEVTHQGLSSPVTKSFNRGEC	132 % of control
GpH7-B3 variant I332_14T/GpL16-k0 (antibody, human IgG1, kappa, also called Ho Ab I332_14T) heavy: not shown light: DIVMTQSPLSLPVTPGEPASISCQASESLVHSNRNTYLHWYLQKPGQSPQLLIYKVSNRFSGVPDRFSGSGSGTDFTLKISRVEAEDVGVYYCSQNTHVPPTFGQGTKVEIERTVAAPSVFIFPPSDEQLKSGTASVVCLLNNFYPREAKVQWKVDNALQSGNSQESVTEQDSKDSTYSLSSTLTLSKADYEKHKVYACEVTHQGLSSPVTKSFNRGEC	106 % of control
GpH7-B3 variant I332_02A/GpL16-k0 (antibody, human IgG1, kappa, also called Ho Ab I332_02A) heavy: not shown light: DIVMTQSPLSLPVTPGEPASISCQASESLVHSNRNTYLHWYLQKPGQSPQLLIYKVSNRFSGVPDRFSGSGSGTDFTLKISRVEAEDVGVYYCSQNTHVPPTFGQGTKVEIERTVAAPSVFIFPPSDEQLKSGTASVVCLLNNFYPREAKVQWKVDNALQSGNSQESVTEQDSKDSTYSLSSTLTLSKADYEKHKVYACEVTHQGLSSPVTKSFNRGEC	81.8 % of control
GpH7-B3 variant H268_05P/GpL16-k0 (antibody, human IgG1, kappa, also called Ho Ab H268_05P) heavy: not shown light: DIVMTQSPLSLPVTPGEPASISCQASESLVHSNRNTYLHWYLQKPGQSPQLLIYKVSNRFSGVPDRFSGSGSGTDFTLKISRVEAEDVGVYYCSQNTHVPPTFGQGTKVEIERTVAAPSVFIFPPSDEQLKSGTASVVCLLNNFYPREAKVQWKVDNALQSGNSQESVTEQDSKDSTYSLSSTLTLSKADYEKHKVYACEVTHQGLSSPVTKSFNRGEC	109 % of control
GpH7-B3 variant K326_08L/GpL16-k0 (antibody, human IgG1, kappa, also called Ho Ab K326_08L) heavy: not shown light: DIVMTQSPLSLPVTPGEPASISCQASESLVHSNRNTYLHWYLQKPGQSPQLLIYKVSNRFSGVPDRFSGSGSGTDFTLKISRVEAEDVGVYYCSQNTHVPPTFGQGTKVEIERTVAAPSVFIFPPSDEQLKSGTASVVCLLNNFYPREAKVQWKVDNALQSGNSQESVTEQDSKDSTYSLSSTLTLSKADYEKHKVYACEVTHQGLSSPVTKSFNRGEC	168 % of control
GpH7-B3 variant L235_04F/GpL16-k0 (antibody, human IgG1, kappa, also called Ho Ab L235_04F) heavy: not shown light: DIVMTQSPLSLPVTPGEPASISCQASESLVHSNRNTYLHWYLQKPGQSPQLLIYKVSNRFSGVPDRFSGSGSGTDFTLKISRVEAEDVGVYYCSQNTHVPPTFGQGTKVEIERTVAAPSVFIFPPSDEQLKSGTASVVCLLNNFYPREAKVQWKVDNALQSGNSQESVTEQDSKDSTYSLSSTLTLSKADYEKHKVYACEVTHQGLSSPVTKSFNRGEC	111 % of control
GpH7-B3 variant L234_09D/GpL16-k0 (antibody, human IgG1, kappa, also called Ho Ab L234_09D) heavy: not shown light: DIVMTQSPLSLPVTPGEPASISCQASESLVHSNRNTYLHWYLQKPGQSPQLLIYKVSNRFSGVPDRFSGSGSGTDFTLKISRVEAEDVGVYYCSQNTHVPPTFGQGTKVEIERTVAAPSVFIFPPSDEQLKSGTASVVCLLNNFYPREAKVQWKVDNALQSGNSQESVTEQDSKDSTYSLSSTLTLSKADYEKHKVYACEVTHQGLSSPVTKSFNRGEC	68.5 % of control

Results, then the binder that gave them:

Ho/Con_2b	Binder
5.3 % of control	GpH7-B3 variant G237_19Q/GpL16-k0 (antibody, human IgG1, kappa, also called Ho Ab G237_19Q) heavy: not shown light: DIVMTQSPLSLPVTPGEPASISCQASESLVHSNRNTYLHWYLQKPGQSPQLLIYKVSNRFSGVPDRFSGSGSGTDFTLKISRVEAEDVGVYYCSQNTHVPPTFGQGTKVEIERTVAAPSVFIFPPSDEQLKSGTASVVCLLNNFYPREAKVQWKVDNALQSGNSQESVTEQDSKDSTYSLSSTLTLSKADYEKHKVYACEVTHQGLSSPVTKSFNRGEC
90.1 % of control	GpH7-B3 variant I336_06M/GpL16-k0 (antibody, human IgG1, kappa, also called Ho Ab I336_06M) heavy: not shown light: DIVMTQSPLSLPVTPGEPASISCQASESLVHSNRNTYLHWYLQKPGQSPQLLIYKVSNRFSGVPDRFSGSGSGTDFTLKISRVEAEDVGVYYCSQNTHVPPTFGQGTKVEIERTVAAPSVFIFPPSDEQLKSGTASVVCLLNNFYPREAKVQWKVDNALQSGNSQESVTEQDSKDSTYSLSSTLTLSKADYEKHKVYACEVTHQGLSSPVTKSFNRGEC
103 % of control	GpH7-B3 variant I336_08L/GpL16-k0 (antibody, human IgG1, kappa, also called Ho Ab I336_08L) heavy: not shown light: DIVMTQSPLSLPVTPGEPASISCQASESLVHSNRNTYLHWYLQKPGQSPQLLIYKVSNRFSGVPDRFSGSGSGTDFTLKISRVEAEDVGVYYCSQNTHVPPTFGQGTKVEIERTVAAPSVFIFPPSDEQLKSGTASVVCLLNNFYPREAKVQWKVDNALQSGNSQESVTEQDSKDSTYSLSSTLTLSKADYEKHKVYACEVTHQGLSSPVTKSFNRGEC
109 % of control	GpH7-B3 variant H268_03V/GpL16-k0 (antibody, human IgG1, kappa, also called Ho Ab H268_03V) heavy: not shown light: DIVMTQSPLSLPVTPGEPASISCQASESLVHSNRNTYLHWYLQKPGQSPQLLIYKVSNRFSGVPDRFSGSGSGTDFTLKISRVEAEDVGVYYCSQNTHVPPTFGQGTKVEIERTVAAPSVFIFPPSDEQLKSGTASVVCLLNNFYPREAKVQWKVDNALQSGNSQESVTEQDSKDSTYSLSSTLTLSKADYEKHKVYACEVTHQGLSSPVTKSFNRGEC
54.9 % of control	GpH7-B3 variant L234_10E/GpL16-k0 (antibody, human IgG1, kappa, also called Ho Ab L234_10E) heavy: not shown light: DIVMTQSPLSLPVTPGEPASISCQASESLVHSNRNTYLHWYLQKPGQSPQLLIYKVSNRFSGVPDRFSGSGSGTDFTLKISRVEAEDVGVYYCSQNTHVPPTFGQGTKVEIERTVAAPSVFIFPPSDEQLKSGTASVVCLLNNFYPREAKVQWKVDNALQSGNSQESVTEQDSKDSTYSLSSTLTLSKADYEKHKVYACEVTHQGLSSPVTKSFNRGEC
170 % of control	GpH7-B3 variant K326_07I/GpL16-k0 (antibody, human IgG1, kappa, also called Ho Ab K326_07I) heavy: not shown light: DIVMTQSPLSLPVTPGEPASISCQASESLVHSNRNTYLHWYLQKPGQSPQLLIYKVSNRFSGVPDRFSGSGSGTDFTLKISRVEAEDVGVYYCSQNTHVPPTFGQGTKVEIERTVAAPSVFIFPPSDEQLKSGTASVVCLLNNFYPREAKVQWKVDNALQSGNSQESVTEQDSKDSTYSLSSTLTLSKADYEKHKVYACEVTHQGLSSPVTKSFNRGEC
80.6 % of control	GpH7-B3 variant L234_20W/GpL16-k0 (antibody, human IgG1, kappa, also called Ho Ab L234_20W) heavy: not shown light: DIVMTQSPLSLPVTPGEPASISCQASESLVHSNRNTYLHWYLQKPGQSPQLLIYKVSNRFSGVPDRFSGSGSGTDFTLKISRVEAEDVGVYYCSQNTHVPPTFGQGTKVEIERTVAAPSVFIFPPSDEQLKSGTASVVCLLNNFYPREAKVQWKVDNALQSGNSQESVTEQDSKDSTYSLSSTLTLSKADYEKHKVYACEVTHQGLSSPVTKSFNRGEC
